In patent US20180171001A1:
Numbering of substitutions follows the chain as printed.

B1: γ4κ3 (antibody, V domains shown)
VH: QIHLVQSGTEVKKPGSSVTVSCKAYGVNTFGLYAVNWVRQAPGQSLEYIGQIWRWKSSASHHFRGRVIISAVDLTGSSPPISPLEIKNLTSDDTAVYFCTTTSTSDRWSGLHHDGVMAFSSWGQGTLISVSA
VL: DIQMTQSPSTLSASIGDTVRISCRASQSITGNWLAWYHQRPGKAPRLLIYRGSRLLGGVPSRFSGSAAGTDFTLTIANLQAEDFGTFYCQQYDTYPGTFGQGTKVEVKR
B2: γ22κ3 (antibody, V domains shown)
VH: B1 VH with I68L, S77P, P83S, S105Y, R107K
VL: B1 VL
B3: γ52κ3 (antibody, V domains shown)
VH: B1 VH with I68L, P83S, S105Y
VL: B1 VL
B4: γ46κ5 (antibody, V domains shown)
VH: B1 VH with S45G, I68L, P83S, L89V, S105Y, R107K, M117V
VL: B1 VL with I15T, L34V, H38Q, S53A, R54A, S64R, A77G
B5: γ20κ3 (antibody, V domains shown)
VH: B1 VH with T19A, H62D, P83S, T101A, S105P, R107Y
VL: B1 VL
B6: γ59κ3 (antibody, V domains shown)
VH: B1 VH with S45G, I68L, P83S, L89V, S105Y, R107E, G110D
VL: B1 VL
B7: γ3κ3 (antibody, V domains shown)
VH: QIHLVQSGTEVKKPGSSVTVSCKAYGVNTFGLYAVSWVRQAPGQRLEYIGQIRRWKSSASHHFRGRVTVSAVDPTGSSPPISSLEIRDLTTDDTAVYFCTTTSTSDYWSGLHNERGTAFSSWGQGTLISVSA
VL: B1 VL
B8: γ15κ18 (antibody, V domains shown)
VH: B1 VH with P83S, T102A, S105Y, R107K
VL: B1 VL with I15V, N32G, T70A
B9: γ15κ3 (antibody, V domains shown)
VH: B1 VH with P83S, T102A, S105Y, R107K
VL: B1 VL
B10: 8ANC3040 (antibody, V domains shown)
VH: B1 VH with I68L, P83S, S105Y, R107Q
VL: B1 VL with L34V, H38Q, S53A, R54A, A77G
B11: 8ANC3484 (antibody, V domains shown)
VH: B1 VH with I68L, P83S, S105Y
VL: B1 VL with L34V, H38Q, S53A, R54A, S64R, A77G
B12: γ8κ3 (antibody, V domains shown)
VH: B1 VH with E10G, S45G, I68L, S82T, P83S, L89V, S105Y, R107K, H112Y
VL: B1 VL
B13: γ8κ11 (antibody, V domains shown)
VH: B1 VH with E10G, S45G, I68L, S82T, P83S, L89V, S105Y, R107K, H112Y
VL: B1 VL with I15V, D17G, N32G

target: Env of HIV-1 strain 231965.c1 (HIV-1); assay: cell-based or functional assay

Binder | neutralization IC50
B1 | > 15 µg/mL
B2 | > 15 µg/mL
B3 | 6.59 µg/mL
B4 | 0.525 µg/mL
B5 | > 15 µg/mL
B6 | > 15 µg/mL
B7 | 0.727 µg/mL
B8 | 1.49 µg/mL
B9 | 1.61 µg/mL
B10 | 1.17 µg/mL
B11 | 0.294 µg/mL
B12 | 3.48 µg/mL
B13 | 2.49 µg/mL

target: Env of MuLV; assay: cell-based or functional assay

Binder | neutralization IC50
B3 | > 30 µg/mL
B5 | > 21 µg/mL
B6 | > 30 µg/mL
B7 | > 30 µg/mL
B9 | > 30 µg/mL
B10 | > 30 µg/mL
B11 | > 30 µg/mL
B12 | > 18 µg/mL

target: Env of HIV-1 strain REJO4541.67 (HIV-1); assay: cell-based or functional assay

Binder | neutralization IC50
B1 | > 15 µg/mL
B2 | > 15 µg/mL
B3 | > 15 µg/mL
B4 | 0.196 µg/mL
B5 | > 15 µg/mL
B6 | 8.54 µg/mL
B7 | 0.26 µg/mL
B8 | > 15 µg/mL
B9 | > 15 µg/mL
B10 | 0.198 µg/mL
B11 | 0.117 µg/mL
B12 | > 15 µg/mL
B13 | > 15 µg/mL

target: Env of HIV-1 strain 250-4 (HIV-1); assay: cell-based or functional assay

Binder | neutralization IC50
B1 | > 15 µg/mL
B2 | > 15 µg/mL
B3 | > 15 µg/mL
B4 | > 15 µg/mL
B5 | > 15 µg/mL
B6 | > 15 µg/mL
B7 | > 15 µg/mL
B8 | > 15 µg/mL
B9 | > 15 µg/mL
B11 | > 30 µg/mL
B12 | > 15 µg/mL
B13 | > 15 µg/mL

target: Env of HIV-1 strain Du172.17 (HIV-1); assay: cell-based or functional assay

Binder | neutralization IC50
B1 | > 15 µg/mL
B2 | > 15 µg/mL
B3 | > 15 µg/mL
B4 | > 15 µg/mL
B5 | > 15 µg/mL
B6 | > 15 µg/mL
B7 | > 15 µg/mL
B8 | > 15 µg/mL
B9 | > 15 µg/mL
B11 | 4.01 µg/mL
B12 | > 15 µg/mL
B13 | > 15 µg/mL

target: Env of HIV-1 strain YU2.DG (HIV-1); assay: cell-based or functional assay

Binder | neutralization IC50
B1 | > 15 µg/mL
B2 | > 15 µg/mL
B3 | 5.75 µg/mL
B4 | 0.553 µg/mL
B5 | > 15 µg/mL
B6 | 8.97 µg/mL
B7 | 0.42 µg/mL
B8 | 1.17 µg/mL
B9 | 1.07 µg/mL
B10 | 0.617 µg/mL
B11 | 0.461 µg/mL
B12 | 5.41 µg/mL
B13 | 9.35 µg/mL

target: Env of HIV-1 strain H086.8 (HIV-1); assay: cell-based or functional assay

Binder | neutralization IC50
B1 | > 15 µg/mL
B2 | > 15 µg/mL
B3 | > 15 µg/mL
B4 | 1.75 µg/mL
B5 | > 15 µg/mL
B6 | > 15 µg/mL
B7 | 3.31 µg/mL
B8 | > 15 µg/mL
B9 | > 15 µg/mL
B11 | 0.394 µg/mL
B12 | > 15 µg/mL
B13 | > 15 µg/mL

target: Env of HIV-1 strain 3016.v5.c45 (HIV-1); assay: cell-based or functional assay

Binder | neutralization IC50
B1 | > 15 µg/mL
B2 | > 15 µg/mL
B3 | 3.05 µg/mL
B4 | 0.111 µg/mL
B5 | > 15 µg/mL
B6 | > 15 µg/mL
B7 | 0.347 µg/mL
B8 | 0.664 µg/mL
B9 | 1.26 µg/mL
B10 | 0.427 µg/mL
B11 | 0.131 µg/mL
B12 | 2.38 µg/mL
B13 | 2.46 µg/mL

target: Env of HIV-1 strain 251-18 (HIV-1); assay: cell-based or functional assay

Binder | neutralization IC50
B1 | > 15 µg/mL
B2 | > 15 µg/mL
B3 | 14.5 µg/mL
B4 | 0.609 µg/mL
B5 | > 15 µg/mL
B6 | > 15 µg/mL
B7 | > 15 µg/mL
B8 | > 15 µg/mL
B9 | > 15 µg/mL
B10 | 0.571 µg/mL
B11 | 0.391 µg/mL
B12 | > 15 µg/mL
B13 | > 15 µg/mL

target: Env of HIV-1 strain ZM109F.PB4 (HIV-1); assay: cell-based or functional assay

Binder | neutralization IC50
B1 | > 15 µg/mL
B2 | > 15 µg/mL
B3 | > 15 µg/mL
B4 | > 15 µg/mL
B5 | > 15 µg/mL
B6 | > 15 µg/mL
B7 | > 15 µg/mL
B8 | > 15 µg/mL
B9 | > 15 µg/mL
B11 | > 30 µg/mL
B12 | > 15 µg/mL
B13 | > 15 µg/mL

target: Env of HIV-1 strain R1166.c1 (HIV-1); assay: cell-based or functional assay

Binder | neutralization IC50
B1 | > 15 µg/mL
B2 | > 15 µg/mL
B3 | 23.4 µg/mL
B4 | 0.922 µg/mL
B5 | > 15 µg/mL
B6 | 24.2 µg/mL
B7 | 2.2 µg/mL
B8 | 1.99 µg/mL
B9 | 3.94 µg/mL
B10 | 2.37 µg/mL
B11 | 1.03 µg/mL
B12 | 7.6 µg/mL
B13 | 3.88 µg/mL

target: Env of HIV-1 strain 3365.v2.c20 (HIV-1); assay: cell-based or functional assay

Binder | neutralization IC50
B1 | > 15 µg/mL
B2 | > 15 µg/mL
B3 | > 15 µg/mL
B4 | > 15 µg/mL
B5 | > 15 µg/mL
B6 | > 15 µg/mL
B7 | > 15 µg/mL
B8 | > 15 µg/mL
B9 | > 15 µg/mL
B10 | > 25 µg/mL
B11 | > 30 µg/mL
B12 | > 15 µg/mL
B13 | > 15 µg/mL

target: Env of HIV-1 strain 3415.v1.c1 (HIV-1); assay: cell-based or functional assay

Binder | neutralization IC50
B1 | > 15 µg/mL
B2 | > 15 µg/mL
B3 | > 15 µg/mL
B4 | > 15 µg/mL
B5 | > 15 µg/mL
B6 | > 15 µg/mL
B7 | > 15 µg/mL
B8 | > 15 µg/mL
B9 | > 15 µg/mL
B10 | 3.06 µg/mL
B11 | 0.589 µg/mL
B12 | > 15 µg/mL
B13 | > 15 µg/mL

target: Env of HIV-1 strain PVO.4 (HIV-1); assay: cell-based or functional assay

Binder | neutralization IC50
B1 | > 15 µg/mL
B2 | > 15 µg/mL
B3 | 1.92 µg/mL
B4 | 0.129 µg/mL
B5 | > 15 µg/mL
B6 | > 15 µg/mL
B7 | 0.17 µg/mL
B8 | 1.59 µg/mL
B9 | 5.32 µg/mL
B10 | 0.284 µg/mL
B11 | 0.077 µg/mL
B12 | > 15 µg/mL
B13 | 8.16 µg/mL

target: Env of HIV-1 strain ZM53M.PB12 (HIV-1); assay: cell-based or functional assay

Binder | neutralization IC50
B1 | > 15 µg/mL
B2 | > 15 µg/mL
B3 | > 15 µg/mL
B4 | 12.4 µg/mL
B5 | > 15 µg/mL
B6 | > 15 µg/mL
B7 | > 15 µg/mL
B8 | > 15 µg/mL
B9 | > 15 µg/mL
B10 | 14.9 µg/mL
B11 | 11.6 µg/mL
B12 | > 15 µg/mL
B13 | > 15 µg/mL

target: Env of HIV-1 strain X1254_c3 (HIV-1); assay: cell-based or functional assay

Binder | neutralization IC50
B1 | 18 µg/mL
B2 | > 15 µg/mL
B3 | > 15 µg/mL
B4 | 1.79 µg/mL
B5 | 14.7 µg/mL
B6 | 3.39 µg/mL
B7 | 1.82 µg/mL
B8 | 2.85 µg/mL
B9 | 3.49 µg/mL
B10 | 2.91 µg/mL
B11 | 2.19 µg/mL
B12 | 4.01 µg/mL
B13 | 4.14 µg/mL
